Data set [1] concerns the target T1, Synechocystis sp. PCC 6803 alcohol dehydrogenase SynAdh (slr1192, BAA18840), wild type, SEQ ID NO:4, overexpressed, crude extract (Synechocystis sp. PCC 6803, UniProt P74721).
T1 construct: PCC 6803; crude cell extract
T1 sequence (P74721 1-336): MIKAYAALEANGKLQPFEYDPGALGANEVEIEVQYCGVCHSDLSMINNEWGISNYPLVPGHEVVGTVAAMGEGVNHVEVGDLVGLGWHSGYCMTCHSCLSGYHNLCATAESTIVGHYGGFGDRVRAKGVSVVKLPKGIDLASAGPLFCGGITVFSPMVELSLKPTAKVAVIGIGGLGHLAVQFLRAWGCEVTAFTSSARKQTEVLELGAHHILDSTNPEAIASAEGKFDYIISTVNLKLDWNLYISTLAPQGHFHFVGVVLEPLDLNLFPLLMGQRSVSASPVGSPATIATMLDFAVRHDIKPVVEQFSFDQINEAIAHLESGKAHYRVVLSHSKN
The data set can be described thus: Acetaldehyde reduction by crude extract of Synechocystis overexpressing SynAdh, varied cosubstrate (Lineweaver-Burk). It counts as biochemical. The following applies: pH 6.1.

Data set [2] concerns Zymomonas mobilis ADH II (with Pdc) in intact Synechocystis PCC 6803 cells, strain 6803-pVZ-PisiA (pVZ-PisiA-Pdc-AdhII). The data set can be described thus: Ethanol production by intact cells of strain 6803-pVZ-PisiA after addition of acetaldehyde (Lineweaver-Burk). Type of data set: cell-based, Synechocystis PCC 6803 (Zymomonas mobilis AdhII). How it is done: Methods: Synechocystis PCC 6803 wild type and the transgenic strain “6803-pVZ-PisiA”, corresponding to the above described Synechocystis pVZ-PisiA-Pdc-AdhII, were washed twice with BG11 (centrifugation 15 min, 4500 rpm, 4° C.; Rotina 420R, Hettich) and redissolved in BG11. Aliquots of 2 ml were spiked with acetaldehyde. The assays were incubated at room temperature under illumination. Samples of 250 μl were removed in defined time intervals (5 min or 10 min) and centrifuged (3 min, 14000 rpm, room temperature, Micro 200R, Hettich).
Ethanol was quantified with a described protocol. The method is based on oxidation of ethanol catalyzed by alcohol dehydrogenase (Sigma, Adh of S. cerevisiae). NADH formed in this reaction, reacts with the PMS/MTT reagent to a dye.
OD750 of the culture was 0.56.
This experiment was repeated with a different culture of strain 6803-pVZ-PisiA of OD750 of 1.353 and a chlorophyll concentration of 4.6 μg/ml. Similar results were obtained.

The test system of data set [3] is Zymomonas mobilis ADH II, crude extract of Synechocystis strain 6803-pVZ-PisiA (pVZ-PisiA-Pdc-AdhII). The data set can be described thus: Adh activity of crude extract of strain 6803-pVZ-PisiA in the direction of ethanol formation (Lineweaver-Burk). It counts as biochemical. The following applies: for Km: read-out: Km for acetaldehyde. The method, then: For preparation of crude extracts, cells were harvested, washed with 40 mM MES/Tris (pH 6.5), 1 mM DTT and broken (beadbeater, 2×10 min). The supernatant of a centrifugation (15 min, 14000 rpm, 4° C., Micro 200R, Hettich) was used for the determination of Adh activity in cells.
The initial velocity was calculated from the dE/min at 340 nm.
In order to compare the dates acquired with intact cells, the kinetic constants of alcohol dehydrogenase in crude extracts of strain 6803-pVZ-PisiA were measured. […] A graphical representation of the results obtained is given in form of a “Lineweaver-Burk” plot (FIG. 8).
In a second experiment the Adh activity was measured at pH 7.5. NADH and NADPH were used as co-substrates.

For data set [4], the system named is Zymomonas mobilis ADH II (ZmAdhII). The following applies: literature values; ranges given jointly for ADH I and ADH II; cited from earlier work.
The subject of data set [5] is Zymomonas mobilis ADH I (ZmAdhI, AAV89860), SEQ ID NO:2. The following applies: literature values; ranges given jointly for ADH I and ADH II; cited from earlier work.
Substrate in data set [6]: NC(=O)C1=CN([C@@H]2O[C@H](COP(=O)(O)OP(=O)(O)OC[C@H]3O[C@@H](n4cnc5c(N)ncnc54)[C@H](O)[C@@H]3O)[C@@H](O)[C@H]2O)C=CC1
Kind of data set: cells, lysate or membranes. The following applies: other: acetaldehyde reduction, crude extract, pH 6.1.

Substrate in data set [7]: NC(=O)C1=CN([C@@H]2O[C@H](COP(=O)(O)OP(=O)(O)OC[C@H]3O[C@@H](n4cnc5c(N)ncnc54)[C@H](OP(=O)(O)O)[C@@H]3O)[C@@H](O)[C@H]2O)C=CC1
The data set can be described thus: cells, lysate or membranes. The following applies: other: acetaldehyde reduction, crude extract, pH 6.1.

Substrate in data set [8]: NC(=O)c1ccc[n+]([C@@H]2O[C@H](COP(=O)([O-])OP(=O)(O)OC[C@H]3O[C@@H](n4cnc5c(N)ncnc54)[C@H](O)[C@@H]3O)[C@@H](O)[C@H]2O)c1
The data set can be described thus: purified protein, by the assay type. The following applies: other: ethanol oxidation.

Substrate in data set [9]: NC(=O)C1=CN([C@@H]2O[C@H](COP(=O)(O)OP(=O)(O)OC[C@H]3O[C@@H](n4cnc5c(N)ncnc54)[C@H](O)[C@@H]3O)[C@@H](O)[C@H]2O)C=CC1
The data set can be described thus: purified protein, by the assay type. The following applies: other: acetaldehyde reduction.

Substrate in data set [10]: NC(=O)c1ccc[n+]([C@@H]2O[C@H](COP(=O)([O-])OP(=O)(O)OC[C@H]3O[C@@H](n4cnc5c(N)ncnc54)[C@H](OP(=O)(O)O)[C@@H]3O)[C@@H](O)[C@H]2O)c1
Kind of data set: purified protein, by the assay type. The following applies: other: ethanol oxidation.

Substrate in data set [11]: NC(=O)C1=CN([C@@H]2O[C@H](COP(=O)(O)OP(=O)(O)OC[C@H]3O[C@@H](n4cnc5c(N)ncnc54)[C@H](OP(=O)(O)O)[C@@H]3O)[C@@H](O)[C@H]2O)C=CC1
The data set can be described thus: purified protein, by the assay type. The following applies: other: acetaldehyde reduction.

Substrate in data set [12]: CCO
Kind of data set: purified protein, by the assay type. The following applies: other: ethanol oxidation.

Substrate in data set [13]: CC=O
Kind of data set: Acetaldehyde reduction (forward reaction) by purified SynAdh, Km determination. It counts as biochemical, Synechocystis sp. PCC 6803. The following applies: other: acetaldehyde reduction.

[14] abbreviates: pH 7.5, NADH 0.25 M or NADPH 0.21 M.

Consider seven molecules from patent publication US8163516B2 (Algenol Biofuels Inc., priority 2008, dated 2012).

Like-named read-outs stand apart in the source and are kept apart here.

On to `NC(=O)C1=CN([C@@H]2O[C@H](COP(=O)(O)OP(=O)(O)OC[C@H]3O[C@@H](n4cnc5c(N)ncnc54)[C@H](OP(=O)(O)O)[C@@H]3O)[C@@H](O)[C@H]2O)C=CC1` [NADPH], for which the “vmax for NADPH” value in [1] was 0.4 μMol min^−1 ml^−1 crude extract.

As to `CC=O` [acetaldehyde], the Km in [2] (OD750 0.56) stood at 18 µM; in data set [2] (repeat, OD750 1.353, chlorophyll 4.6 μg/ml) it was 25 µM; in data set [3] (pH 6.5, NADH in excess) it was 45 µM; in data set [3] (setting [14]), 100 µM. Further, the Vmax in data set [2] (OD750 0.56) was 3.2 µmol/L/min; in data set [2] (repeat, OD750 1.353), 4.35 µmol/L/min; in [2] (repeat, using chlorophyll as reference), 0.95 µmol/L/mg; in [3] (pH 6.5, NADH in excess), 7.2 μMol L^−1 mg^−1 chlorophyll; in [3] (setting [14]), 0.89 μMol L^−1 mg^−1 chlorophyll.

As for `NC(=O)c1ccc[n+]([C@@H]2O[C@H](COP(=O)([O-])OP(=O)(O)OC[C@H]3O[C@@H](n4cnc5c(N)ncnc54)[C@H](O)[C@@H]3O)[C@@H](O)[C@H]2O)c1` [NAD^+, nicotinamide-adenine dinucleotide], the Km in data set [4] was 110 µM; in [5], 73 µM.

As to `CCO` [ethanol], the Km in [4] was 140 µM; in data set [5], 24 µM.

Consider `NC(=O)C1=CN([C@@H]2O[C@H](COP(=O)(O)OP(=O)(O)OC[C@H]3O[C@@H](n4cnc5c(N)ncnc54)[C@H](O)[C@@H]3O)[C@@H](O)[C@H]2O)C=CC1` [NADH, reduced nicotinamide-adenine dinucleotide], for which the “vmax for NADH” value in data set [1] is 1.6 μMol min^−1 ml^−1 crude extract.

B1: Synechocystis sp. PCC 6803 alcohol dehydrogenase SynAdh (slr1192, BAA18840), wild type, SEQ ID NO:4, overexpressed, crude extract (Synechocystis sp. PCC 6803 … (protein)
chain: MIKAYAALEANGKLQPFEYDPGALGANEVEIEVQYCGVCHSDLSMINNEWGISNYPLVPGHEVVGTVAAMGEGVNHVEVGDLVGLGWHSGYCMTCHSCLSGYHNLCATAESTIVGHYGGFGDRVRAKGVSVVKLPKGIDLASAGPLFCGGITVFSPMVELSLKPTAKVAVIGIGGLGHLAVQFLRAWGCEVTAFTSSARKQTEVLELGAHHILDSTNPEAIASAEGKFDYIISTVNLKLDWNLYISTLAPQGHFHFVGVVLEPLDLNLFPLLMGQRSVSASPVGSPATIATMLDFAVRHDIKPVVEQFSFDQINEAIAHLESGKAHYRVVLSHSKN
Take B1: the Km in [6] was 1000 µM; in data set [7], 15 µM.

B2: Synechocystis sp. PCC 6803 alcohol dehydrogenase SynAdh (slr1192, BAA18840), wild type, SEQ ID NO:4, purified (Synechocystis sp. PCC 6803 substr. Kazusa) (protein)
chain: MIKAYAALEANGKLQPFEYDPGALGANEVEIEVQYCGVCHSDLSMINNEWGISNYPLVPGHEVVGTVAAMGEGVNHVEVGDLVGLGWHSGYCMTCHSCLSGYHNLCATAESTIVGHYGGFGDRVRAKGVSVVKLPKGIDLASAGPLFCGGITVFSPMVELSLKPTAKVAVIGIGGLGHLAVQFLRAWGCEVTAFTSSARKQTEVLELGAHHILDSTNPEAIASAEGKFDYIISTVNLKLDWNLYISTLAPQGHFHFVGVVLEPLDLNLFPLLMGQRSVSASPVGSPATIATMLDFAVRHDIKPVVEQFSFDQINEAIAHLESGKAHYRVVLSHSKN
As to B2, the Km in data set [8] (pH 7.5, 150 mM KCl, pH 7.5) turned out to be 10 mM mM; in [8] (pH 8.5), 10 mM mM; in data set [9] (pH 7.5, 150 mM KCl, pH 7.5), 1000 μM μM; in data set [9] (purified enzyme) it was 1000 µM; in [10] (pH 7.5, 150 mM KCl, pH 7.5), 15 μM μM; in [10] (pH 8.5) it was 15 μM μM. The Km in data set [11] (pH 6.0) amounted to 20 μM μM; in data set [11] (pH 7.5, 150 mM KCl, pH 7.5), 15 μM μM; in data set [11] (purified enzyme), 15 µM; in [12] (pH 7.5, 150 mM KCl, pH 7.5) it was 23 mM mM; in [12] (pH 8.5), 59 mM mM; in data set [13] (pH 6.0) it was 200 μM μM. The Km worked out at 180 μM μM in data set [13] (pH 7.5, 150 mM KCl, pH 7.5) and 200 µM in [13] (purified enzyme).
